For experiment [1], the target named is HSP70-GFP (full-length HSP70 fused to GFP) (human) (UniProt P0DMV8). The experiment can be described thus: cell-based or functional assay.
Experiment [2] concerns the target HSP70 (human HSP70; the antigen of the binning, humanization and variant binding assays) (human) (UniProt P0DMV8). The experiment can be described thus: BLI, anti-human Fc capture, antigen 100 nM. On the technique in general: In BLI a coated tip is dipped into the sample, and binding shifts an interference pattern.

HSP70 (human HSP70; the antigen of the binning, humanization and variant binding assays) (human), sequence (P0DMV8 whole entry, change not shown): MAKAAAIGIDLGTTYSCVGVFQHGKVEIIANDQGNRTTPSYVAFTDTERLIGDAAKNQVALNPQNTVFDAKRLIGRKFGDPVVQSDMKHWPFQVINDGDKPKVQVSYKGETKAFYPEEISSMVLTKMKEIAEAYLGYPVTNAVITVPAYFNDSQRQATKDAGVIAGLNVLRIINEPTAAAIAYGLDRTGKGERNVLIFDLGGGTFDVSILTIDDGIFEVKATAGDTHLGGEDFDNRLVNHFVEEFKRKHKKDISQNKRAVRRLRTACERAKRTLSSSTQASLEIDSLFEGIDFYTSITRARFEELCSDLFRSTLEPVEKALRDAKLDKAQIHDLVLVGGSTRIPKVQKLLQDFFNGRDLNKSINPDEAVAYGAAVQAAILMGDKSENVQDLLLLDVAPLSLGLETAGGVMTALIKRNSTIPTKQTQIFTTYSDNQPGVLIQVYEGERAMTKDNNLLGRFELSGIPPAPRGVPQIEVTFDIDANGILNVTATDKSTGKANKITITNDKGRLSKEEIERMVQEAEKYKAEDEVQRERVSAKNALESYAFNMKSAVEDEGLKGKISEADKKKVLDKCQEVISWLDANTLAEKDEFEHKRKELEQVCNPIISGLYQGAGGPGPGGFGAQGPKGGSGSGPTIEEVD
HSP70-GFP (full-length HSP70 fused to GFP) (human), sequence (P0DMV8 whole entry, the tested form may be a part): as the sequence (P0DMV8 whole entry, change not shown) above

B1: murine 77A in a murine IgG2a format (antibody, V domains shown)
VH: QIQLVQSGPELKKPGETVKISCKASGYTFTNYGMNWVKQAPGKGLKWMGWINTYTGEPTYADDFKGRFAFSLETSATTAYLQINNLKNEDTATYFCARYDHAMDYWGQGTSVTVSS
VL: DIVMSQSPSSLAVSAGEKVTMSCKSSQSLLNSGTRKNYLAWYQQKPGQSPKLLIYWTSTRESGVPDRFTGSGSGTDFTLTINSVQAEDLAVYYCKQSYTLYTFGGGTKLEIK
Take B1: in experiment [1], the % live cells GFP positive, DC3.2 cells was found to be 78.3% and the % live cells GFP positive, MH-S cells stood at 66%.

B2: murine 77A in a murine IgG2b format (antibody, V domains shown)
VH: QIQLVQSGPELKKPGETVKISCKASGYTFTNYGMNWVKQAPGKGLKWMGWINTYTGEPTYADDFKGRFAFSLETSATTAYLQINNLKNEDTATYFCARYDHAMDYWGQGTSVTVSS
VL: DIVMSQSPSSLAVSAGEKVTMSCKSSQSLLNSGTRKNYLAWYQQKPGQSPKLLIYWTSTRESGVPDRFTGSGSGTDFTLTINSVQAEDLAVYYCKQSYTLYTFGGGTKLEIK
As to B2, in experiment [1], the % GFP positivity, DC3.2 cells came to 4.85% and the % GFP positivity, MH-S cells came to 16%.

B3: h77A-1.32 (antibody, V domains shown)
VH: QIQLVQSGAEVKKPGASVKVSCKASGYTFTNYGMNWVRQAPGQGLEWMGWINTYTGEPRYADDFKGRFTFTTDTSTSTAYMELRSLRSDDTAVYFCARYDHDMDYWGQGTLVTVSS
VL: EIVLTQSPDSLAVSLGERATINCKSSQSLLNSGTRKNYLAWYQQKAGQSPKLLIYWTSTRESGVPDRFSGSGSGTDFTLTIDSLQAEDVAVYYCKQSYTLYTFGGGTKVEIK
For B3, in experiment [2], the % Diss is -80.5%, the X = 610 is 0.0256 nM and the X = 1495 was determined as 0.0462 nM.

Source of the values: US20250084155A1.
